The numbers were not newly measured in PMC7462287, which cites them from elsewhere.

The data set has as its target Protective antigen heptamer (Bacillus anthracis) (UniProt P13423). The data set can be described thus: SPR.

Sequence of Edema factor (P40136 34-800): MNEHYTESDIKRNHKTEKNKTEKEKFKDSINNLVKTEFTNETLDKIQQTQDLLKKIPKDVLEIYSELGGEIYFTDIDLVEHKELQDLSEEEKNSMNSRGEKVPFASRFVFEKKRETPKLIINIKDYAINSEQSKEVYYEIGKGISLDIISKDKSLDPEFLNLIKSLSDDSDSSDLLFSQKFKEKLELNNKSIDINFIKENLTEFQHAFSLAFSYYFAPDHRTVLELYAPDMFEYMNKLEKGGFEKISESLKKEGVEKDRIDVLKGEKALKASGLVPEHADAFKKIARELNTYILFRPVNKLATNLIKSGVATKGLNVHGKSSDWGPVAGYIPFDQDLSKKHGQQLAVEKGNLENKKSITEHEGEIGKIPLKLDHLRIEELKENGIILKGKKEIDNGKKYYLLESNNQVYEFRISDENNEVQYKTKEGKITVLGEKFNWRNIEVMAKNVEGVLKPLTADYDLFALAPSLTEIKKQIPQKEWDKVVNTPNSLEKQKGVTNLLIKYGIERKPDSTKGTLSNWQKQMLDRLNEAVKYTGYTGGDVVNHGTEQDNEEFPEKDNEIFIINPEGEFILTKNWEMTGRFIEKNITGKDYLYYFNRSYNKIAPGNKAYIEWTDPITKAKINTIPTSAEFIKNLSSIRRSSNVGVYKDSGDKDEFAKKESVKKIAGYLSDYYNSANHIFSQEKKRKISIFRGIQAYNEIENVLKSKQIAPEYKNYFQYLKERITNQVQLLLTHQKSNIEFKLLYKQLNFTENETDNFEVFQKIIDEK
Sequence of Protective antigen heptamer (Bacillus anthracis) (P13423 197-764): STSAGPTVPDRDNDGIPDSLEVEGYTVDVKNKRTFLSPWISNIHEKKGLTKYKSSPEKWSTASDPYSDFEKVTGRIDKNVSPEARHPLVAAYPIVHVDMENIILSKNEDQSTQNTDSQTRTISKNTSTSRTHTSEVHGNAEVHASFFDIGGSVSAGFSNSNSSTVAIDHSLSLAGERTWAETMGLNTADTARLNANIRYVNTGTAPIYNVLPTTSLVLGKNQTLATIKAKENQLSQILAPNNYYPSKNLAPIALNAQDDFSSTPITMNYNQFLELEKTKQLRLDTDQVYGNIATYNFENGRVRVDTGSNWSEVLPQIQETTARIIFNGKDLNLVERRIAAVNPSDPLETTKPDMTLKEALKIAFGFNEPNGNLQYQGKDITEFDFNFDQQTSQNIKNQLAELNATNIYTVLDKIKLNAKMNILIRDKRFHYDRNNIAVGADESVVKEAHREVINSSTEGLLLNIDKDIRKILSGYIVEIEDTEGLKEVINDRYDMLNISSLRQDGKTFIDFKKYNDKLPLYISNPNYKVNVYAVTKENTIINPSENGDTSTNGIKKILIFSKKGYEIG

Consider Edema factor (from UniProt P40136), for which the dissociation constant Kd is 1.5 nM.
